Results: the supplement of paper PMC9732359
± gives the uncertainty stated by the source.

Assay: protein stability index of a GFP-peptide fusion (yeast GPS) (PSI 1-4); higher = more stable; sorted into four equal gates, so the index is relative within each strain
In short: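 Mid-log yeast cultures in leucine-free medium, carrying a pooled plasmid library, were sorted into four equal gates by their GFP/Cherry fluorescence ratio. Each plasmid expressed Cherry along with GFP fused upstream of a tiled 17-residue yeast protein peptide. Plasmids recovered from each gate were PCR-amplified and Illumina-sequenced, with reads assigned to strains by barcodes. The protein stability index was obtained by summing each gate's read frequency weighted by its gate number.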

| Sequence | protein stability index (doa10∆) | protein stability index (pdr5∆) | protein stability index (san1∆) | protein stability index (ubr1∆) |
| --- | --- | --- | --- | --- |
| CSHIFTSDQKNKRTQFS [RPB9] | 2.52 ± 0.058 | 2.72 ± 0.052 | 2.47 ± 0.068 | 2.53 ± 0.043 |
| DKKKGQNVTSETHSKKR [ITC1] | 3.1 ± 0.087 | 3.12 ± 0.076 | 3.16 ± 0.061 | 3.04 ± 0.039 |
| MGPPSGKTYMGWWGHMG [QCR8] | – | – | 3.13 ± 0.2 | – |
| SLLASKSTYRTPNFDDV [RIP1] | 2.78 ± 0.29 | – | – | 3.49 ± 0.17 |
| NNTTPSSTGNANTSNNL [YJL041W/NSP1] | 3.34 ± 0.093 | 3.29 ± 0.08 | 3.46 ± 0.095 | 3.37 ± 0.07 |
| ANHDDQDDIDEMVENSS [SRP68] | 3.1 ± 0.1 | 3.2 ± 0.11 | 3.14 ± 0.095 | 3.13 ± 0.07 |
| LEDLFSYRNGMASYMLN [YJR042W/NUP85] | 1.6 ± 0.071 | 1.25 ± 0.15 | 1.89 ± 0.13 | 2.42 ± 0.11 |
| MKVFVTKHLMPQDLTFN [RPB7] | 2.96 ± 0.062 | 2.87 ± 0.054 | 2.54 ± 0.066 | 2.94 ± 0.051 |
| IHFADVAHITTKSPAYP [RGR1] | 2.42 ± 0.054 | 2.61 ± 0.055 | 2.55 ± 0.045 | 2.56 ± 0.033 |
| NFKDMSHVNKYGLIRGL [PRP8] | 2 ± 0.069 | 1.47 ± 0.067 | 2.19 ± 0.13 | 1.16 ± 0.032 |
| LFKTLFKKLTKDIFRYM [RPB2] | 1.94 ± 0.061 | 1.53 ± 0.059 | 1.33 ± 0.13 | 1.66 ± 0.055 |
| PLIQNSMRTIMKANPAL [PRP8] | 2.4 ± 0.08 | 2.58 ± 0.22 | 1.56 ± 0.3 | 2.25 ± 0.17 |
| THVANFMNDAAADVSAV [YML103C/NUP188] | 2.79 ± 0.097 | 2.77 ± 0.073 | 2.44 ± 0.081 | 2.84 ± 0.049 |
| YPDLQPFVLAENMWPFS [CDC53] | 1.68 ± 0.05 | 2.09 ± 0.044 | 2.01 ± 0.055 | 1.71 ± 0.044 |
| LERFNKRADISKRRITE [SMC1] | 3.14 ± 0.14 | 2.7 ± 0.074 | 2.96 ± 0.17 | 2.99 ± 0.13 |
| NILNMSMNNDFQQQQQQ [PGD1] | 2.68 ± 0.078 | 3.04 ± 0.084 | 2.83 ± 0.066 | 2.67 ± 0.071 |
| NYPQLTEDILKEISTRV [YCS4] | – | 3.11 ± 0.17 | – | 3.41 ± 0.13 |
| AGGGESDSALILMYKGF [UBP6] | 3.29 ± 0.091 | 3.45 ± 0.08 | 3.26 ± 0.12 | 3.35 ± 0.063 |
| PWYNNPVSCIIQNDEEY [PRP8] | 1.88 ± 0.13 | 2.05 ± 0.094 | 2.43 ± 0.13 | 1.05 ± 0.12 |
| NQTIKEAKDAIIELENI [YIL149C/MLP2] | 3.02 ± 0.061 | 3.2 ± 0.07 | 3.06 ± 0.052 | 2.89 ± 0.065 |
| LVDENTDYLYRRLHDEN [YCS4] | 2.68 ± 0.056 | 2.64 ± 0.048 | 2.68 ± 0.063 | 2.24 ± 0.034 |
| ISMILRNISFSDNNSRI [SWI1] | 3.02 ± 0.06 | 2.86 ± 0.059 | 2.77 ± 0.058 | 3.08 ± 0.04 |
| HVDSLIEDFVDGIANSK [SRB7] | 3.06 ± 0.1 | 3.3 ± 0.077 | 3.04 ± 0.059 | 3.08 ± 0.057 |
| QELRKKVNPNIMNMIEN [SMC2] | 2.45 ± 0.13 | 2.72 ± 0.11 | 2.37 ± 0.13 | 2.47 ± 0.062 |
| DQFRDVEITFGKEFGDV [RRP45] | 3.21 ± 0.1 | 3.27 ± 0.063 | 3.54 ± 0.086 | 3.18 ± 0.067 |
| SFYDAIFFNIPLVAHLG [YJL039C/NUP192] | 1.73 ± 0.037 | 1.23 ± 0.042 | 2.02 ± 0.027 | 1.22 ± 0.034 |
| IEEHPTVVDAIDNSDEI [IRR1] | 3.35 ± 0.13 | 3.12 ± 0.076 | 3.38 ± 0.069 | 3.1 ± 0.06 |
| LVSLFEDTNLAAIHAKR [HHT1] | 2.9 ± 0.17 | 2.67 ± 0.17 | 2.56 ± 0.12 | 2.81 ± 0.063 |

| Sequence | protein stability index (doa10∆) | protein stability index (pdr5∆) | protein stability index (san1∆) | protein stability index (ubr1∆) |
| --- | --- | --- | --- | --- |
| ISGYKKFSSTSRYMQYN [RPT1] | 1.26 ± 0.18 | 1.59 ± 0.15 | 1.56 ± 0.2 | 1.7 ± 0.11 |
| IDFTLLNRLLRLIVDPN [PRP8] | 1.85 ± 0.059 | 1.88 ± 0.058 | 1.84 ± 0.071 | 1.73 ± 0.051 |
| PNIRELGVKNLGLCCLL [YCG1] | 2.91 ± 0.25 | – | 1.87 ± 0.21 | 1.46 ± 0.061 |
| LIKNGKKVTAFVPNDGC [RPS23A] | 3.03 ± 0.11 | 3.31 ± 0.061 | 3.45 ± 0.039 | 3.38 ± 0.054 |
| AHIEKQSLDTIGGSDAA [RPO21] | 3.18 ± 0.097 | 3.25 ± 0.11 | 3.32 ± 0.12 | 2.95 ± 0.095 |
| FYQQVHKKDRLQYLPLY [SIR4] | 1.64 ± 0.063 | 1.77 ± 0.058 | 1.75 ± 0.11 | 1.67 ± 0.048 |
| LPLNKPRLEKLINEILL [RGR1] | 2.53 ± 0.051 | 2.33 ± 0.041 | 2 ± 0.077 | 2.48 ± 0.041 |
| TKGDTSKATGAPSANQG [RTT102] | 3.18 ± 0.065 | 3.35 ± 0.074 | 3.29 ± 0.045 | 3.24 ± 0.059 |
| IVALTNAKDKERLQLLE [SMC3] | 3.22 ± 0.19 | 3.29 ± 0.13 | 3.01 ± 0.07 | 3.21 ± 0.11 |
| REIESLIAEETNNKKLL [SMC3] | 2.78 ± 0.18 | 2.86 ± 0.082 | 3.01 ± 0.11 | 2.92 ± 0.15 |
| QAAGGLSIRLTNQLKSL [RPN8] | 2.75 ± 0.085 | 2.57 ± 0.088 | 2.29 ± 0.11 | 2.19 ± 0.06 |
| GAGIERELARIKKYASV [RPL3] | 3.49 ± 0.21 | 3.46 ± 0.17 | – | – |
| QTYGETTAVDALQKGLK [RPC19] | 2.03 ± 0.13 | 1.1 ± 0.12 | 1.16 ± 0.29 | 1.14 ± 0.082 |
| LCKTKMVCETDVPSEDD [RPO21] | 2.99 ± 0.071 | 3 ± 0.093 | 3.25 ± 0.074 | 2.52 ± 0.067 |
| KYREGQVLFQGLIYSFN [POP1] | 2.46 ± 0.12 | 2.11 ± 0.081 | 2.46 ± 0.065 | 2.42 ± 0.11 |
| QQLRRALPDVVVKGLPD [RPO31] | 2.19 ± 0.069 | 2.31 ± 0.057 | 1.93 ± 0.078 | 2.36 ± 0.083 |
| GDYGSAKCNSLLQLKYF [POP5] | 2.31 ± 0.049 | 2.24 ± 0.056 | 2.23 ± 0.067 | 2.59 ± 0.071 |
| MLKQHLFKYQGHIGAYL [PUP1] | 2.17 ± 0.064 | 2.34 ± 0.063 | 2.25 ± 0.092 | 2.25 ± 0.071 |
| YQGVYSMGSILLSFVLG [YML031W/NDC1] | 2.29 ± 0.074 | 2.14 ± 0.11 | 2.58 ± 0.11 | 2.44 ± 0.12 |
| FNAPATGNGTTTTSNTS [YOR098C/NUP1] | 2.44 ± 0.034 | 2.83 ± 0.035 | 2.8 ± 0.035 | 2.836 ± 0.027 |
| KYQKALHYLKKFKHIDD [SRP72] | 2.04 ± 0.1 | 2.96 ± 0.12 | 2.57 ± 0.17 | 2.31 ± 0.14 |
| EELLDNCIETFVAEKTT [SRB6] | 2.43 ± 0.16 | – | – | – |
| LSLTAVPSFLRPDITMY [GRR1] | 2.17 ± 0.043 | 2.34 ± 0.045 | 2.18 ± 0.051 | 2.33 ± 0.043 |
| TTSVDVMLKGIVTALLE [SRP54] | 1.27 ± 0.047 | 1.22 ± 0.056 | 1.18 ± 0.1 | 1.11 ± 0.04 |
| SEDVSRDHEKDTYRTLM [YIL149C/MLP2] | 3.36 ± 0.047 | 3.41 ± 0.051 | 3.43 ± 0.035 | 3.33 ± 0.047 |
| NFPDEDDDDSRKSAPVD [SKP1] | 3.09 ± 0.046 | 3.2 ± 0.047 | 3.31 ± 0.04 | 3.27 ± 0.041 |
| FVKNIRMLSFEDISKAT [RPN9] | 2.66 ± 0.063 | 1.86 ± 0.076 | 1.91 ± 0.078 | 1.93 ± 0.053 |
